Earlier results as cited in US20070140974A1, “Targeted nanoparticles for magnetic resonance imaging” (General Electric Company, priority 2005, published 2007).

Columns and labels:
[1] = room temperature, 1.5 Tesla magnetic field
uPAR = uPAR (Homo sapiens, UniProt Q03405)
uPAR, sequence (Q03405 23-305): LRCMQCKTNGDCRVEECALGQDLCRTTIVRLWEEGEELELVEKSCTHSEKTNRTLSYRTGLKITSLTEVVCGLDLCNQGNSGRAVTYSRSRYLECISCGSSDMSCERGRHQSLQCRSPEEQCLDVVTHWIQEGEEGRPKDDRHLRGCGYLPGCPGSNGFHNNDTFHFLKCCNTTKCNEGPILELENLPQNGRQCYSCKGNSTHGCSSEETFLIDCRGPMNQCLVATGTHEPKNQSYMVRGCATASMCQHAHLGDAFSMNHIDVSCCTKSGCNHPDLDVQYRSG

| Compound | R1 relaxivity [1] [mM⁻¹ s⁻¹] | binding of uPAR and inhibition of integrin or vitronectin binding (uPAR) |
| --- | --- | --- |
| O=C([O-])CN(CCN(CC(=O)[O-])CC(=O)O)CCN(CC(=O)[O-])CC(=O)O.[Gd+3] [Gd-DTPA] | 3 | – |
| AESTYHHLSLGYMYTLN | – | capable of binding uPAR and inhibiting binding of integrin |
| AELDLSTFYDIQYLLRT | – | capable of binding uPAR and inhibiting binding of vitronectin |
| AEPVYQYELDSYLRSYY | – | capable of binding uPAR and inhibiting binding of vitronectin |
| AEFFKLGPNGYVYLHSA | – | capable of binding uPAR and inhibiting binding of vitronectin |
